# B1: gSAP-16K-HA (16 KDa C-terminal fragment, amino acid sequence 733-854, of gSAP with a C-terminal HA tag), A4D1B5 733-854 (protein, human, UniProt A4D1B5 733-854, looked up, not shown: small tags and cut ends)
# chain: RLMKDLDNTEKNEKLKFSIIVRLPPLIGQKICRLWDHPMSSNIISRNHVTRLLQNYKKQPRNSMINKSSFSVEFLPLNYFIEILTDIESSNQALYPFEGHDNVDAEFVEEAALKHTAMLLGL
# Target: amyloid precursor protein C-terminal fragment (APP-CTF), P05067
# Assay: co-immunoprecipitation, HEK293 cells, with 10 µM imatinib
# Settings: remark: other sources report otherwise
# amyloid precursor protein C-terminal fragment (APP-CTF), P05067, sequence (P05067 672-770 limits assumed): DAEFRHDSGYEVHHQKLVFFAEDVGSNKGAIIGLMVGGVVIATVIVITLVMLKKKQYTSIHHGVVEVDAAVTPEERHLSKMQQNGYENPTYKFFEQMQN
binder,measurement,value
B1,reduction of the interaction by imatinib (10 µM),47%

# Source: patent US20130149309A1
